Source: article PMC10403576, “The Ycf48 accessory factor occupies the site of the oxygen-evolving manganese cluster during photosystem II biogenesis” (Nature Communications, 2023)

T1: PsaI subunit of PSI (Synechocystis sp. PCC 6803, UniProt Q55330 1-40)
T1 construct: PsaI of Synechocystis sp; PCC 6803; source: endogenous, Synechocystis sp; PCC 6803 strain His-D2/ΔCP47; co-purified with His-tagged D2 (Ni-NTA, sucrose gradient)
T1 chain (looked up): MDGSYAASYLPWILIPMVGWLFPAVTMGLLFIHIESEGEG


What was measured:
PsaI subunit of PSI = molecular target: T1, PsaI subunit of PSI; test: cryo-EM structure; RCII/PSI complex co-purified from Synechocystis via His-tagged D2; 0.1% FOM; two classes at 3.2 Å and 3.1 Å, PSI-focused map at 2.9 Å; conditions: both partners purified
PsaB RC subunit of PSI = molecular target: T2, PsaB RC subunit of PSI (Synechocystis sp. PCC 6803, UniProt P29255 1-731); test: as above; conditions: both partners purified
T2 construct: PsaB of Synechocystis sp; PCC 6803; source: endogenous, Synechocystis sp; PCC 6803 strain His-D2/ΔCP47; co-purified with His-tagged D2 (Ni-NTA, sucrose gradient)
T2 sequence (P29255 whole entry): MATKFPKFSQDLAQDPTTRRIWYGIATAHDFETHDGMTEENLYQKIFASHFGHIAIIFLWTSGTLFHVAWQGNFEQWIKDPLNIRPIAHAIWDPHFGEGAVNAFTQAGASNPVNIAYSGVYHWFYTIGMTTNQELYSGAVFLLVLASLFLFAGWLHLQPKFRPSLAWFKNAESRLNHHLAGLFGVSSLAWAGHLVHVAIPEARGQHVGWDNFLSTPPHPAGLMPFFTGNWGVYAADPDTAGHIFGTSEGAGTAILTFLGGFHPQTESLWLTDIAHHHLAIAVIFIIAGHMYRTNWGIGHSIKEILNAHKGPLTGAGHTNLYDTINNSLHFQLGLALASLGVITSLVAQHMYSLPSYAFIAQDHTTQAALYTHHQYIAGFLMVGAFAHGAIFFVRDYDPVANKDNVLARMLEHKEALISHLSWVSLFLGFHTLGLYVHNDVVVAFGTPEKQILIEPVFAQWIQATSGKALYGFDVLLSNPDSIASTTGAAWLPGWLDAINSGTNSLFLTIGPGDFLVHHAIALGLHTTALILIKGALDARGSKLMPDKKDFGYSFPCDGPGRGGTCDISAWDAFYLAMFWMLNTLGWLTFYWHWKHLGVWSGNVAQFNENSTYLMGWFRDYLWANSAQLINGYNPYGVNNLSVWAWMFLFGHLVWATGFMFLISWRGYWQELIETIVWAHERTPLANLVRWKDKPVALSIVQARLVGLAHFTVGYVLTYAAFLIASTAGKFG

| binding result (PsaI subunit of PSI) | binding result (PsaB RC subunit of PSI) | Binder |
| --- | --- | --- |
| binds | – | PsbF, beta subunit of Cyt b-559 (natural protein, PsbF (cytochrome b-559 beta subunit) of Synechocystis sp; PCC 6803; source: endogenous, Synechocystis sp; PCC 6803 strain His-D2/ΔCP47; co-purified with His-tagged D2 (Ni-NTA, sucrose gradient)) not shown |
| – | binds | PsbI subunit of PSII (natural protein, PsbI of Synechocystis sp; PCC 6803; source: endogenous, Synechocystis sp; PCC 6803 strain His-D2/ΔCP47; co-purified with His-tagged D2 (Ni-NTA, sucrose gradient)) not shown |
